According to the nanobody polyreactivity screen of Harvey et al. (2022):

Test: yeast display, Sf9 membrane polyspecificity reagent, FACS + sequencing; frameworks hold sequencing errors
How it was run: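 Using colony PCR, genes from sorted yeast display clones were amplified, then sequenced on MiSeq at 2 × 250 and filtered by CDR length. The clones had been stained with 10% biotinylated, detergent-solubilized Sf9 membrane reagent for 1 hour at 4 °C and sorted by FACS into low and high (top ~1%) gates on anti-HA and streptavidin fluorescence. Polyreactivity labels come from the gate of origin.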

Sequence	polyreactivity (PSR sort gate)
QVQLVESGGGLVQAGGSLRLSCAASRRIFSDNAMGWNRKAPGKERELVAAITFRDGSTYADSVKGRFTISRDNAKNTVYLPMNSLKPEDTAVYYCNRRSQVHSHSKHDYWGQGTQVTVSS	low polyreactivity
QVQLVESGGGLVQAGGSLRLSCAASRRIFYWYAMGWYRQAPGKEREWVAAITWSGGSTYYADSVKGRFTISLDNAKNTVYLQMNSLKREDTAVYFCNAEVYWDVYPGLYYYDIYDYWGQGNQVTVSS	low polyreactivity
QVQLVESGGGLVQAGGSLRLSCAASRRTFNGNAMGWYRQAPGKETELVATITSSAGTTYYADSVKGRFTISRDNAKNTVYLQMNSLKPEDTAVYYCAKRIWRSYPYRPYYSEFGYWGQGTQVTVSS	high polyreactivity
QVQLVESGGGLVQAGGSLRLSCAASRRTFSQYAMGWYRQAHGKERELVAAITSARSTYYADSVKGRFTISRDNAKNTVYLQMNSLKPEDTAVYYCAAYIRFRSNWGQGTQVTVSS	high polyreactivity
QVQLVESGGGLVQAGGSLRLSCAASRRTFYEYAMGWYRQAPGKERELVAAITRSGGSTYYADSVKGRFTISRDNAKNTVYLQMNSLKPEDTAVYYCAAYRHQYRVRYYTAYDYWGQGTQVTVSS	high polyreactivity
QVQLVESGGGLVQAGGSLRLSCAASRSIFAGNAMVWYRQSPGKERELVAGITFGDDSTYYADSVKGRFTISRDNAKNTVYLQMNSLKPEVTAVYYCATDLHPYNYYFYHYWVDAAYDYLGQGTQVTVSS	low polyreactivity
QVQLVESGGGLVQAGGSLRLSCAASRSTFEGYAMGLYRQAPGKERELVAAITVSVGSTYYADSVKGRFTISRDNAKNTVYLQMNSLKPEDTAVYYCAADYDYQYRYYYWGQGTQVTVSS	low polyreactivity
QVQLVESGGGLVQAGGSLRLSCAASRSTITYNAMGWYRQAPGKERELVAAISFSGGRTYYADSVKGRFTISRDNAKNIVYLHMNRLKPEDTAVYYCAKRYGASFYYWGQGTQVTVSS	high polyreactivity
QVQLVESGGGLVQAGGSLRLSCAASRSTLCQNAMGWYRQAPGKEREFVADNSGSGDSTYYADSVKGRFTISRDHANNTVYLQLNSLTPEDTAVYYCATPSPHVGLKWEYDSWGQGTQVTVSS	low polyreactivity
QVQLVESGGGLVQAGGSLRLSCAASRYIFAHYAMGWYRQAPGKERELVAAISTRGGSTYYADSVKGRFTISRDNAKNTVYLQMNSLKPEDTAVYYCNNYRYAGITAEFYYWGQGTQVTVSS	high polyreactivity
QVQLVESGGGLVQAGGSLRLSCAASRYIFVRYAMGWYRQAPGKERELVAPNNSSGGRTYYAHSVKGRFTISRDNAKNTVYLQMNSLKQEDTAVYYCAAYGYYRSGYRALEGYWGQGTQVTVSS	high polyreactivity
QVQLVESGGGLVQAGGSLRLSCAASSRIFVAKAMGWYRKAPGKERELVATITRGASTNYADSVKGRFTISRDNAKNTVYLQMNRLKPEDTAVYYCDKRSYTGYEYWGQGTQVTVSS	low polyreactivity
QVQLVESGGGLVQAGGSLRLSCAASVFNFIYYTMGWYRPAPGKERELVAAISWSGGGTYYADSVKGRFTISRDNAKNTVYLLMNRLKPEDTAVYYCAAYWYVSSRDFEYWGQGTQVTVSS	high polyreactivity
QVQLVESGGGLVQAGGSLRLSCAASVFTCAVYVMGWYRQAPGKERELVANISFSVGSTYYADSVKGRFTISRDYAKNTVYLQMNSLKPEDTAVYYCNADPPPEYYPDKDNYWGQGTQVTVSS	low polyreactivity
QVQLVESGGGLVQAGGSLRLSCAASVFTFPPYAMGWSRQAPGKERELVAAISSAGSTKYADSVKGRFTISRDNAKNTVYLQMNSLKPEDTAVYYCAARWARSYDYWGQGTQVTVSS	low polyreactivity
QVQLVESGGGLVQAGGSLRLSCAASVLIFYWYAMGWYRQAPGKERELVAAISSAGSTNYADSVKGRFTISRDNAKNTVYLQMNSLKPEDTAVYYCYARIAYRYSNYGYWGQGTQVTVSS	low polyreactivity

Sequence	polyreactivity (PSR sort gate)
QVQLVESGGGLVQAGGSLRLSCAASVLTFITNVMVWYRQAPGKERELVAVISSRGGTTYYADSVKGRFTISRDNAKNTVYLQMNSLKPEETAVYYCNRVRSPKYDWGQGTQVTVSS	high polyreactivity
QVQLVESGGGLVQAGGSLRLSCAASVPTFPFNAMGWYRQAPGKERELVAAISWRDGRTYYADSVKGRFTISRDNAKNTVYLQMNSLKPEDTAVYYCNVVKRRSDWGMDYWGQGTKVTVSS	high polyreactivity
QVQLVESGGGLVQAGGSLRLSCAASVRIFGKYAMGRYRQAPGKERELVAAITNSGGRTYYAASVKGRFTISRDNAKNTVYLQMNSLKPEDTAVYYCAALYHASTRQMDYWGQGTQVTVSS	high polyreactivity
QVQLVESGGGLVQAGGSLRLSCAASVRIFGSNVMGWYRQAPGKERELVAAINWIGGSTYYADSVKGRFTISRDNAKNTVYLQMNSLKPEDTAVYYCARKRYNGRGYVGYYYWGQGTQVTVSS	high polyreactivity
QVQLVESGGGLVQAGGSLRLSCAASVRIFGYNAMGWSRQAPGKERYLVAAITTSGGSTYYADSVKGRFTISRDNAKNTVYLQMNSLKPEDTAVYYCARDSLQVFYPYASDDYWGQGTQVTVSS	low polyreactivity
QVQLVESGGGLVQAGGSLRLSCAASVRIFQYYVMGWYIQAPGKERELVAAITSGGGTKYADSVKGRFTISRDNAKNTVYLQMNSLIPEDTAVYFCAAAWFDQYSRYDYWGQGTQVTVSS	low polyreactivity
QVQLVESGGGLVQAGGSLRLSCAASVRIFRGNDMGWYRKAPGKERELVARITGNDGDTYYADSVKGRFTISRDNAKNTVYLQMNSLKPEDTAVYYCATDTSSYRRRYYYWGQGTQVTVSS	low polyreactivity
QVQLVESGGGLVQAGGSLRLSCAASVRIFRYYVMGWYRQAPGKVRELVAAITSGTSTNFAESVKGRFTISRDNAKNTVYLQMNRLKPEDTAVFYCAVRSPRGGRTRFNSNYWGQGTQVTVSS	high polyreactivity
QVQLVESGGGLVQAGGSLRLSCAASVRLFRGYAMGWYRQAPGKERELVAGITSGGSTKYADSVKGRFTISRDNAKNTVYLQMNSLKPEDTAVYDCAKGYLAYSYYARPYIRYYWGQGTQVTVSS	high polyreactivity
QVQLVESGGGLVQAGGSLRLSCAASVRTFDSYTMGWYRPAPGKERELVAAIRSSGGRTYADSVKGRFTISRDNAKNTVYLQMNSLKPEDTAVYYCAAARSYWAKYYYWGQGTQVTVSS	high polyreactivity
QVQLVESGGGLVQAGGSLRLSCAASVRTFGGYAMGLYRQAPGKERELVAAITSDTGTNYADSVKGRFTISRDNAKNTVYLEMNSLKPEDTAVYYCAADTPYSYYLNIYWKGMDYWGQGTQVTVSS	low polyreactivity
QVQLVESGGGLVQAGGSLRLSCAASVRTFHYYAMGWYRQAPGKERELVAGITGGGSTYYADSVKGRFTISRDNAKNTVYLLMNSLKPEDTAVYYCADDRSYYGYGYCGQGTQVTVSS	low polyreactivity
QVQLVESGGGLVQAGGSLRLSCAASVSIFGYYAMGWYRPAPGKEMELVAAISSGGNTNYADSVKGRFTISRDNAKNTVYLQMISLKQEDTAVYYCATRARYKRIRYDYWGQGTQVTVSS	high polyreactivity
QVQLVESGGGLVQAGGSLRLSCAASVSIFIANVMGWYRQAPGKERELVAAITRTSSTYYADSVKGRFTISRDNAKNTVYLQMNSLKPEDTAVYYCAKLYGVVGRWYRSSYGYWGQGTQVTVSS	high polyreactivity
QVQLVESGGGLVQAGGSLRLSCAASVSISLYYAMGWYRQAPGKERELVAAISTRGGSTYYADSVKGRFTISRDNAKNTVYLQMNSLKPEDTAVYYCAARTRLTADPRYGISSKMYYWGQGTQVTVSS	high polyreactivity
